# Measured values published in patent US20060264603A1 (DYAX, published 2006).
# Where a chain is given by its changes, count along the chain named. Ends that are not written are not given here.
# B1: KKII/3#6 (designed binder)
# chain: MHSFCAFKADDGHCKANHQRFFFNIFTRQCEEFSYGGCGGNQNRFESLEECKKMCTRD
# notes: LACI-K1 Kunitz domain variant
# B2: KKI/3 (a) (designed binder)
# chain: B1 chain with H13R, A16G, N17A, Q19L, S34I, G39E
# modifications: not fully specified; cysteine pairing not given here
# notes: LACI-K1 variant from the first phase of screening; also called KKII/3 (a); clone a
# B3: LACI-K1 (first Kunitz domain of LACI, residues 50-107 of SEQ ID NO:25) (other)
# chain: B1 chain with H13P, N17I, H18M, Q19K, S34I, G39E
# notes: also called parental molecule
# B4: KKII/3#5 (designed binder)
# chain: B1 chain with N17S, H18L, Q19P, S34I
# notes: LACI-K1 Kunitz domain variant
# B5: KKI/3 (b) (designed binder)
# chain: B1 chain with H13P, N17I, Q19L, S34I, G39E
# modifications: not fully specified; cysteine pairing not given here
# notes: LACI-K1 variant from the first phase of screening; also called KKII/3 (b); clone b
# Assays:
# [1] = target: T1, human plasma Kallikrein (Calbiochem, San Diego, Calif., # 420302) (human, UniProt P03952 20-638); assay: display-phage binding to kallikrein beads; fraction bound relative to parental
# T1 construct: mature; Bought enzyme coupled to agarose beads with Reactigel (6x); also called pKA; human Kallikrein
# T1 sequence (P03952 20-638 limits assumed): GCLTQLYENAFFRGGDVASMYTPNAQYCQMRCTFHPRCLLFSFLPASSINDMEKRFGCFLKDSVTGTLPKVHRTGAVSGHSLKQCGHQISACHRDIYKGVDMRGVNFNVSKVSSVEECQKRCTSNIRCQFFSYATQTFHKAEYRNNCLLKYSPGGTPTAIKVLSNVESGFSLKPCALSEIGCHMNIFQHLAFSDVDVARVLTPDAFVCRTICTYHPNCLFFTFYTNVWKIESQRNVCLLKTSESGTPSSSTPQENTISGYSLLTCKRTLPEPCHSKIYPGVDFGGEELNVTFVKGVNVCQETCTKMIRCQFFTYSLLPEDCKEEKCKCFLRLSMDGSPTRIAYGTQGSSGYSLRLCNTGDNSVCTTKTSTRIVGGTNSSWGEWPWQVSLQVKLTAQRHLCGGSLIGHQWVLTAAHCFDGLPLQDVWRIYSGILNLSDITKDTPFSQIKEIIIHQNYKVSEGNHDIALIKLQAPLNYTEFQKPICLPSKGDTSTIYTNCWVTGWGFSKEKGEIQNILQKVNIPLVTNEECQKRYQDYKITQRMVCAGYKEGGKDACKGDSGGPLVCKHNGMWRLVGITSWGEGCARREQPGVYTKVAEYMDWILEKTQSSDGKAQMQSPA
# [2] = target: T1, human plasma Kallikrein (Calbiochem, …); assay: preliminary inhibition measurements; method not described
# [3] = target: T1, human plasma Kallikrein (Calbiochem, …); assay: inhibition; method not described
# Plasmin [4] = target: T2, Plasmin; assay: inhibition; method not described
# T2 construct: Protease target in the specificity test
# T2 sequence (P00747 97-580, chain 1 of 2): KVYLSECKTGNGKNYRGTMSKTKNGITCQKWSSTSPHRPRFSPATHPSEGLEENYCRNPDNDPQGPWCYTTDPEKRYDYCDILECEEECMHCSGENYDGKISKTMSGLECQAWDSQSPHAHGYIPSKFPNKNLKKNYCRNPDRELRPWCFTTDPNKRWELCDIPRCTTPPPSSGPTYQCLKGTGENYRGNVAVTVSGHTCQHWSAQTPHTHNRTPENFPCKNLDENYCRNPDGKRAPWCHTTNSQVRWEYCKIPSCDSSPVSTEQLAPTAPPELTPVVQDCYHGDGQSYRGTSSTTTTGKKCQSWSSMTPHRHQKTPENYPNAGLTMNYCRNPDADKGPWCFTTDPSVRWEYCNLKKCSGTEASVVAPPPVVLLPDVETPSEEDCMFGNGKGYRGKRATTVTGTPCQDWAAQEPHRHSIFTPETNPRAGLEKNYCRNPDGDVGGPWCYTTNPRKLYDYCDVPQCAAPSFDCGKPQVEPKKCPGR
# T2 sequence (P00747 581-810, chain 2 of 2): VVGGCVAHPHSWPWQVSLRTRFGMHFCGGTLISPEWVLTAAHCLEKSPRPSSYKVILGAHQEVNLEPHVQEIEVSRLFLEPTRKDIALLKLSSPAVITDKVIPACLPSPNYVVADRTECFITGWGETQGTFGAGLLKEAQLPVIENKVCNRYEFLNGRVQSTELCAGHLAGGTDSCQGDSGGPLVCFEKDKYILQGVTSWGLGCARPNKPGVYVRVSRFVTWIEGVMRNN
# [5] = target: T1, human plasma Kallikrein (Calbiochem, …); assay: display-phage binding to kallikrein beads; pfu eluted / input (10^10 pfu)
# Trypsin [6] = target: T3, Trypsin; assay: display-phage binding to protease target; trypsin, two washes
# T3 construct: Protease target in the specificity test
# Trypsin [7] = target: T3, Trypsin; assay: display-phage binding to protease target
# Thrombin = target: T4, Thrombin; assay: display-phage binding to protease target
# T4 construct: Protease target in the specificity test
# [8] = target: T1, human plasma Kallikrein (Calbiochem, …); assay: display-phage binding to protease target
# Plasmin [9] = target: T2, Plasmin; assay: display-phage binding to protease target
Binder,Relative Binding [1],Ki [2],Ki ratio against wild-type LACI and BPTI [3],Ki (Plasmin [4]),Fraction Bound [5],relative binding (compared to the parental phage display) (Trypsin [6]),relative binding (compared to the parental phage display) (Trypsin [7]),relative binding (compared to the parental phage display) (Thrombin),relative binding (compared to the parental phage display) [8],relative binding (compared to the parental phage display) (Plasmin [9])
B1,2070 fold relative to LACI(K1) display-phage,< 0.5 nM,> 100 times,10 µM,0.0087 fraction of input pfu,,,,,
B2,761 fold relative to LACI(K1) display-phage,,,,3.2e-05 fraction of input pfu,,,,,
B3,1 fold relative to LACI(K1) display-phage,,,,4.2e-06 fraction of input pfu,1 fold relative to parental phage display,1 fold relative to parental phage display,1 fold relative to parental phage display,1 fold relative to parental phage display,1 fold relative to parental phage display
B4,928 fold relative to LACI(K1) display-phage,,,,0.0039 fraction of input pfu,,,,,
B5,524 fold relative to LACI(K1) display-phage,,,,0.0022 fraction of input pfu,,,,,
